Experimental data reported in patent publication EP3741773A1 (City of Hope, dated 2020).

Biological target: T1, meditope-enabled trastuzumab
T1 construct: after it there are no differences from the human heavy chain of trastuzumab; Full IgG was expressed; Labelled with Alexa dyes in FACS; also called TM; trastuzumab memab
Assay: SPR

T1 sequence (heavy, as listed by the source, chain 1 of 2): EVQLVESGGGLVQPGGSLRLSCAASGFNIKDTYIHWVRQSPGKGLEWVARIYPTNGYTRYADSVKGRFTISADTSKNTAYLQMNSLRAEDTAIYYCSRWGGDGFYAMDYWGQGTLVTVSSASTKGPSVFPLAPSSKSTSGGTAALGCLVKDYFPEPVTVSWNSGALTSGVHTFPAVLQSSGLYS
T1 sequence (light, as listed by the source, chain 2 of 2): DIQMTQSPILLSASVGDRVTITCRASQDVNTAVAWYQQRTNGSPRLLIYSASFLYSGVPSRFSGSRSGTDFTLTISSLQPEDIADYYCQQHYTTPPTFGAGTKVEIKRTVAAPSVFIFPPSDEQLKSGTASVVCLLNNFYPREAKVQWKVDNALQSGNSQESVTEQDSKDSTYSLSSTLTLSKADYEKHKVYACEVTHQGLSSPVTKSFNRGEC

B1: Protein L (other)
chain: SEVTIKVNLIFADGKIQTAEFKGTFEEATAEAYRYAALLAKVNGEYTADLEDGGNHMNIKFAG
notes: also called Protein L (only); PpL
**Q.** How did the Kd turn out when B1 was run?
**A.** The Kd was roughly 500 nM.
